43 molecules from patent publication US20220144956A1 (published 2022) can be followed below.

Numbering of substitutions follows the chain as printed.

The labels stand for the following.
B1: H1 L1.61 XENP34624 (antibody, V domains shown)
VH: QLQVQESGPGLVKPSETLSLTCTVSGGSISNSYFSWGWIRQPPGKGLEWIGSFYYGEKTYYNPSLKSRATISIDTSKSQFSLKLSSVTAADTAVYYCPRGPTMIRGVIDSWGQGTLVTVSS
VL: EIVLTQSPATLSLSPGERATLSCRASQSVRSYLAWYQQKPGQAPRLLIYDASNRATGIPARFSGSGSGTDFTLTISSLEPEDFAVYYCQQRSNWPPTFGQGTKLEIK
B2: H1 L1.47 XENP34610 (antibody, V domains shown)
VH: B1 VH
VL: B1 VL with N93Q, L104V
B3: H1 L1.59 XENP34622 (antibody, V domains shown)
VH: B1 VH
VL: B1 VL with Q100G, L104V
B4: H1 L1.46 XENP34609 (antibody, V domains shown)
VH: B1 VH
VL: B1 VL with N93S, L104V
B5: H1 L1.53 XENP34616 (antibody, V domains shown)
VH: B1 VH
VL: B1 VL with W94Y, L104V
B6: H1 L1.45 XENP34608 (antibody, V domains shown)
VH: B1 VH
VL: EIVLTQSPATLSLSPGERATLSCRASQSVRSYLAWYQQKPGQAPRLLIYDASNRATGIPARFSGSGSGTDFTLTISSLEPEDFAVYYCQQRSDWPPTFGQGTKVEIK
B7: H1 L1.56 XENP34619 (antibody, V domains shown)
VH: B1 VH
VL: B1 VL with P96L, L104V
B8: TBRII-A_H1.30_L1 (antibody, V domains shown)
VH: B1 VH with S35Y
VL: B1 VL with L104V
B9: XENP37815 TBRII-A_H1.271_L1.53 (antibody, V domains shown)
VH: B1 VH with N31S, G37H, E57G, S78N, P98A, M103L
VL: B1 VL with W94Y, L104V
B10: XENP37813 TBRII-A_H1.270_L1 (antibody, V domains shown)
VH: B1 VH with N31S, Y54N, E57G, S78N, P98A, M103L
VL: B1 VL with L104V
B11: TBRII-A_H1.51_L1 (antibody, V domains shown)
VH: B1 VH with Y54N
VL: B1 VL with L104V
B12: TBRII-A_H1.1_L1 (antibody, V domains shown)
VH: B1 VH with M103V
VL: B1 VL with L104V
B13: XENP37821 TBRII-A_H1.274_L1 (antibody, V domains shown)
VH: B1 VH with S32A, Y54N, E57G, S78N, P98A, M103L
VL: B1 VL with L104V
B14: TBRII-A_H1.36_L1 (antibody, V domains shown)
VH: B1 VH with G37S
VL: B1 VL with L104V
B15: XENP37817 TBRII-A_H1.272_L1 (antibody, V domains shown)
VH: B1 VH with N31S, Y54N, E57G, S78N, P98A, M103T
VL: B1 VL with L104V
B16: TBRII-A_H1.29_L1 (antibody, V domains shown)
VH: B1 VH with S35T
VL: B1 VL with L104V
B17: XENP37822 TBRII-A_H1.201_L1.53 (antibody, V domains shown)
VH: B1 VH with S32A, E57G, S78N, P98A, M103L
VL: B1 VL with W94Y, L104V
B18: XENP37814 TBRII-A_H1.189_L1.53 (antibody, V domains shown)
VH: B1 VH with N31S, E57G, S78N, P98A, M103L
VL: B1 VL with W94Y, L104V
B19: XENP37819 TBRII-A_H1.273_L1.53 (antibody, V domains shown)
VH: B1 VH with N31S, G37H, E57G, S78N, P98A, M103T
VL: B1 VL with W94Y, L104V
B20: XENP37818 TBRII-A_H1.190_L1.53 (antibody, V domains shown)
VH: B1 VH with N31S, E57G, S78N, P98A, M103T
VL: B1 VL with W94Y, L104V
B21: XENP35105 H1.30 L1 (antibody, V domains shown)
VH: B1 VH with S35Y
VL: B1 VL with L104V
B22: XENP36174 H1.191 L1 (antibody, V domains shown)
VH: B1 VH with N31S, E57G, S78N, P98A, M103V
VL: B1 VL with L104V
B23: XENP36180 H1.197 L1 (antibody, V domains shown)
VH: B1 VH with N31Q, E57G, S78N, P98A, M103L
VL: B1 VL with L104V
B24: XENP36168 H1.185 L1 (antibody, V domains shown)
VH: B1 VH with N31E, E57G, S78N, P98A, M103L
VL: B1 VL with L104V
B25: XENP36186 H1.203 L1 (antibody, V domains shown)
VH: B1 VH with S32A, E57G, S78N, P98A, M103V
VL: B1 VL with L104V
B26: XENP36181 H1.198 L1 (antibody, V domains shown)
VH: B1 VH with N31Q, E57G, S78N, P98A, M103T
VL: B1 VL with L104V
B27: XENP36166 H1.183 L1 (antibody, V domains shown)
VH: B1 VH with E57G, S78N, P98A, I108F
VL: B1 VL with L104V
B28: XENP36172 H1.189 L1 (antibody, V domains shown)
VH: B1 VH with N31S, E57G, S78N, P98A, M103L
VL: B1 VL with L104V
B29: XENP36173 H1.190 L1 (antibody, V domains shown)
VH: B1 VH with N31S, E57G, S78N, P98A, M103T
VL: B1 VL with L104V
B30: XENP36178 H1.195 L1 (antibody, V domains shown)
VH: B1 VH with N31T, E57G, S78N, P98A, M103V
VL: B1 VL with L104V
B31: XENP36182 H1.199 L1 (antibody, V domains shown)
VH: B1 VH with N31Q, E57G, S78N, P98A, M103V
VL: B1 VL with L104V
B32: XENP34306 H1.1 L1 (antibody, V domains shown)
VH: B1 VH with M103V
VL: B1 VL with L104V
B33: XENP35121 H1.30 L1 (antibody, V domains shown)
VH: B1 VH with S35Y
VL: B1 VL with L104V
B34: XENP35124 H1.37 L1 (antibody, V domains shown)
VH: B1 VH with I39V
VL: B1 VL with L104V
B35: XENP35120 H1.29 L1 (antibody, V domains shown)
VH: B1 VH with S35T
VL: B1 VL with L104V
B36: XENP35127 H1.48 L1 (antibody, V domains shown)
VH: B1 VH with Y54D
VL: B1 VL with L104V
B37: XENP35125 H1.51 L1 (antibody, V domains shown)
VH: B1 VH with Y54N
VL: B1 VL with L104V
B38: XENP35126 H1.56 L1 (antibody, V domains shown)
VH: B1 VH with E57G
VL: B1 VL with L104V
B39: XENP34305 H1 L1 (antibody, V domains shown)
VH: B1 VH
VL: B1 VL with L104V
B40: XENP35123 H1.36 L1 (antibody, V domains shown)
VH: B1 VH with G37S
VL: B1 VL with L104V
B41: XENP35122 H1.33 L1 (antibody, V domains shown)
VH: B1 VH with G37A
VL: B1 VL with L104V
B42: XENP35128 H1.50 L1 (antibody, V domains shown)
VH: B1 VH with Y54K
VL: B1 VL with L104V
B43: XENP35119 H1.21 L1 (antibody, V domains shown)
VH: B1 VH with Y33A
VL: B1 VL with L104V

T1 sequence (P37173 23-166): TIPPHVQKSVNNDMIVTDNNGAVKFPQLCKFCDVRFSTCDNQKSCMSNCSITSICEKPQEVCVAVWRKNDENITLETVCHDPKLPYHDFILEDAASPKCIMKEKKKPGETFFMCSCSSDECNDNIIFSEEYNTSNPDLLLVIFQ

One assay addresses T1, human TGFßRII (antigen of the Octet experiments) (human, UniProt P37173 23-166). Kind of assay: BLI (Octet).
As for B1, the Kd came out at 0.642 nM.
B2 yielded a dissociation constant Kd of 0.296 nM. This Kd lies about 2.2-fold lower than the previous one.
The same measure, in the same setting: as for B3, the figure is 0.311 nM; as for B4, 0.666 nM.
B5 returned a Kd of 0.596 nM.
B6 returned a dissociation constant (Kd) of 0.604 nM.
Same read-out and setting: in the case of B7 it was 0.001 nM.

The next assay concerns the target T1, human TGFßRII (antigen of the Octet …).
Assay: not given
B8 registered a Kd of 14 nM.
Regarding B9, binding was put at a Kd of 411 nM.
On the same count and under the same terms, in the case of B10 it was 31.6 nM.
As to B11, binding was put at a Kd of 53 nM.
B12 had a Kd of 2.1 nM. Against the preceding molecule, the Kd is about 25-fold lower.
In turn, B13 showed a Kd of 16.8 nM. Compared with the last molecule, the Kd is about 8-fold higher.
On the same count and under the same terms, as for B14, the figure is 3.5 nM; as for B15, 58.2 nM; as for B16, 4.2 nM.
B17 showed a Kd of 46.6 nM.
B18 returned a Kd of 58.9 nM.
In the case of B19, the dissociation constant Kd was 7.7 nM.
In the case of B20, binding was characterised by a dissociation constant (Kd) of 109 nM. This Kd lies about 14-fold higher than the previous one.

For the next assay the target is unchanged.
Assay: not given
The source holds these as a separate data set.
For B21, the dissociation constant Kd was 15.4 nM.
As to B22, the Kd was 8.43 nM.
Regarding B23, the Kd came to 6.07 nM.
In the case of B24, the Kd is 7.26 nM.
As for B25, the affinity, expressed as Kd, was 6.44 nM.
Molecule B26 displayed a Kd of 8.4 nM.
In turn, B27 showed a Kd of 6.15 nM.
Same read-out and setting: in the case of B28 it was 6.99 nM; in that of B29, 9.24 nM.
In turn, B30 showed a Kd of 8.42 nM.
For the molecule B31, binding was put at a Kd of 7.43 nM.

The target is the same in another assay. Kind of assay: Octet.
B32 registered a Kd of 4.02 nM. That is a single-digit nanomolar value.
Consider B33, for which binding was put at a Kd of 10.3 nM.
Turning to B34, the Kd was 2.63 nM.
The molecule B35 displayed a Kd of 4.6 nM.
B36 came in with a Kd of 35 nM.
Consider B37, for which the Kd is 23 nM.
B38: the Kd was determined as 3.36 nM.
Take B39: binding was put at a Kd of 2.92 nM.
Take B40: the dissociation constant Kd stood at 5.1 nM.
B41 came in with a Kd of 3.42 nM.
In the case of B42, the affinity, expressed as Kd, was 31.4 nM.
With B43, binding was characterised by a dissociation constant (Kd) of 2.79 nM.
